Measurements reported in US20040018971A1 (published 2004).

Tests used:
[1] = molecular target: HLA-B*0702 (human); experiment: competition vs 125I-labeled standard peptide, purified HLA
[2] = molecular target: HLA-B*5301 (human); experiment: as above
[3] = molecular target: HLA-B*5101 (human); experiment: as above
[4] = molecular target: HLA-B*5401 (human); experiment: as above
[5] = molecular target: T1, HLA-A*0201 (human); experiment: competition with 125I-labelled standard peptide 941.01 ([..]) on purified HLA, gel filtration
T1 construct: also called HLA-A2.1

[6] = molecular target: HLA-A*1101 (human); experiment: inhibition of 125I-labelled standard peptide binding to purified HLA, gel filtration
[7] = molecular target: HLA-A*0301 (human); experiment: as above
[8] = molecular target: HLA-A*1101 (purified HLA class I molecule) (human); experiment: inhibition of 125I probe peptide binding to purified HLA; ratio to standard peptide
[9] = molecular target: T2, HLA-A*0301 (purified HLA class I molecule) (human); experiment: as above
T2 construct: also called A3

[10] = molecular target: HLA-B*0702 (human); experiment: competition with 125I probe peptide, purified HLA
[11] = molecular target: HLA-B*5101 (human); experiment: competition with 125I probe peptide, purified HLA
[12] = molecular target: HLA-A*1101 (human); experiment: inhibition of 125I-labelled probe peptide binding to purified HLA-A*1101, gel filtration
[13] = molecular target: HLA-A*0301 (human); experiment: inhibition of 125I probe peptide binding to purified HLA
[14] = molecular target: HLA-A*6801 (human); experiment: as above

B1: Her2/neu.760.F1I9 (peptide)
peptide: FPKANKEII
notes: 9-mer analog of the HER2/neu peptide starting at position 760
IC50 [1]: 8.5 nM
IC50 [2]: 7150 nM
IC50 [3]: 55 nM
IC50 [4]: 39 nM

B2: Her2/neu.642.F1I10 (peptide)
peptide: FPAEQRASPI
notes: 10-mer analog of the HER2/neu peptide starting at position 642
IC50 [1]: 3.1 nM
IC50 [2]: 4900 nM
IC50 [3]: 98 nM
IC50 [4]: 56 nM

GIPAREIPDL (Synthetic peptide) [HER2/neu A02 supermotif peptide, position 925, 10 amino acids]
relative binding ratio [5]: 0.0001 ratio (IC50 of standard peptide / IC50 of test peptide)

VLIAHNQVR (Synthetic A3 supermotif peptide) [HER2/neu peptide, position 84, 9 amino acids]
relative binding ratio [6]: 0.0007 ratio (IC50 of standard peptide / IC50 of test peptide)
relative binding ratio [7]: 0.0033 ratio (IC50 of standard peptide / IC50 of test peptide)

GAYSLTLQGL (Synthetic peptide) [HER2/neu A02 supermotif peptide, position 439, 10 amino acids]
relative binding ratio [5]: 0.003 ratio (IC50 of standard peptide / IC50 of test peptide)

GLGISWLGL (Synthetic peptide) [HER2/neu A02 supermotif peptide, position 447, 9 amino acids]
relative binding ratio [5]: 0.0018 ratio (IC50 of standard peptide / IC50 of test peptide)

GICLTSTVQL (Synthetic peptide) [HER2/neu A02 supermotif peptide, position 787, 10 amino acids]
relative binding ratio [5]: 0.0004 ratio (IC50 of standard peptide / IC50 of test peptide)

CLLDHVRENR (also called Her2/neu.805 (10-mer)) [HER2/neu peptide, position 805, 10 amino acids]
relative binding ratio [8]: 0.0001 ratio (IC50 standard / IC50 test)
relative binding ratio [9]: 0.0003 ratio (IC50 standard / IC50 test)

TVPWDQLFR (Synthetic A3 supermotif peptide) [HER2/neu peptide, position 479, 9 amino acids]
relative binding ratio [6]: 0.0072 ratio (IC50 of standard peptide / IC50 of test peptide)
relative binding ratio [7]: 0.0006 ratio (IC50 of standard peptide / IC50 of test peptide)

GVLIQRNPQL (Synthetic peptide) [HER2/neu A02 supermotif peptide, position 152, 10 amino acids]
relative binding ratio [5]: 0.0036 ratio (IC50 of standard peptide / IC50 of test peptide)

PTHDPSPLQR [HER2/neu peptide, position 1102, 10 amino acids]
relative binding ratio [6]: 0.0001 ratio (IC50 of standard peptide / IC50 of test peptide)
relative binding ratio [7]: 0.0003 ratio (IC50 of standard peptide / IC50 of test peptide)

B3: Her2/neu.65 (10-mer) (peptide)
peptide: LPTNASLSFL
notes: native HER2/neu peptide from position 65
IC50 [10]: 290 nM
IC50 [11]: 2500 nM

NIQEFAGCK (Synthetic A3 supermotif peptide) [HER2/neu peptide, position 360, 9 amino acids]
relative binding ratio [6]: 0.0036 ratio (IC50 of standard peptide / IC50 of test peptide)
relative binding ratio [7]: 0.0002 ratio (IC50 of standard peptide / IC50 of test peptide)

AMPNQAQMR (also called Her2/neu.705 (9-mer)) [HER2/neu peptide, position 705, 9 amino acids]
relative binding ratio [8]: 0.0006 ratio (IC50 standard / IC50 test)
relative binding ratio [9]: 0.0004 ratio (IC50 standard / IC50 test)

PAGATLERPK (Synthetic A3 supermotif peptide) [HER2/neu peptide, position 1162, 10 amino acids]
relative binding ratio [6]: -0.0002 ratio (IC50 of standard peptide / IC50 of test peptide)
relative binding ratio [7]: -0.0002 ratio (IC50 of standard peptide / IC50 of test peptide)

PLQRLRIVR (Synthetic A3 supermotif peptide) [HER2/neu peptide, position 95, 9 amino acids]
relative binding ratio [6]: 0.0001 ratio (IC50 of standard peptide / IC50 of test peptide)
relative binding ratio [7]: 0.0002 ratio (IC50 of standard peptide / IC50 of test peptide)

GMEHLREVR [HER2/neu peptide, position 346, 9 amino acids]
relative binding ratio (IC50 of standard peptide / IC50 of test peptide) [12]: -0.0002 relative binding ratio

VARCPSGVK (Synthetic A3 supermotif peptide) [HER2/neu peptide, position 597, 9 amino acids]
relative binding ratio [6]: -0.0002 ratio (IC50 of standard peptide / IC50 of test peptide)
relative binding ratio [7]: 0.01 ratio (IC50 of standard peptide / IC50 of test peptide)

GATLERPKTL (Synthetic peptide) [HER2/neu A02 supermotif peptide, position 1164, 10 amino acids]
relative binding ratio [5]: 0.0002 ratio (IC50 of standard peptide / IC50 of test peptide)

CAAGCTGPK (also called Her2/neu.240 (9-mer)) [HER2/neu peptide, position 240, 9 amino acids]
relative binding ratio [8]: 0.0021 ratio (IC50 standard / IC50 test)
relative binding ratio [9]: 0.0021 ratio (IC50 standard / IC50 test)

GLPREYVNAR [HER2/neu peptide, position 549, 10 amino acids]
relative binding ratio (IC50 of standard peptide / IC50 of test peptide) [12]: 0.0003 relative binding ratio

GSGAFGTVYK [HER2/neu peptide, position 727, 10 amino acids]
relative binding ratio (IC50 of standard peptide / IC50 of test peptide) [12]: 0.13 relative binding ratio

HADGGKVPIK [HER2/neu peptide, position 878, 10 amino acids]
relative binding ratio (IC50 of standard peptide / IC50 of test peptide) [12]: 0.0008 relative binding ratio

IISAVVGILL (Synthetic peptide) [HER2/neu A02 supermotif peptide, position 654, 10 amino acids]
relative binding ratio [5]: 0.012 ratio (IC50 of standard peptide / IC50 of test peptide)

ALESILRRR (also called Her2/neu.890 (9-mer)) [HER2/neu peptide, position 890, 9 amino acids]
relative binding ratio [8]: 0.0006 ratio (IC50 standard / IC50 test)
relative binding ratio [9]: 0.0013 ratio (IC50 standard / IC50 test)

QVRQVPLQR (Synthetic A3 supermotif peptide) [HER2/neu peptide, position 90, 9 amino acids]
relative binding ratio [6]: 0.0005 ratio (IC50 of standard peptide / IC50 of test peptide)
relative binding ratio [7]: 0.0029 ratio (IC50 of standard peptide / IC50 of test peptide)

GVGSPYVSR [HER2/neu peptide, position 776, 9 amino acids]
relative binding ratio (IC50 of standard peptide / IC50 of test peptide) [12]: 0.0066 relative binding ratio

GMSYLEDVR [HER2/neu peptide, position 832, 9 amino acids]
relative binding ratio (IC50 of standard peptide / IC50 of test peptide) [12]: 0.0002 relative binding ratio

GTQRCEKCSK [HER2/neu peptide, position 327, 10 amino acids]
relative binding ratio (IC50 of standard peptide / IC50 of test peptide) [12]: 0.61 relative binding ratio

GLRELQLRSL (Synthetic peptide) [HER2/neu A02 supermotif peptide, position 136, 10 amino acids]
relative binding ratio [5]: 0.0001 ratio (IC50 of standard peptide / IC50 of test peptide)

HADGGKVPI (Synthetic peptide) [HER2/neu A02 supermotif peptide, position 878, 9 amino acids]
relative binding ratio [5]: 0.0002 ratio (IC50 of standard peptide / IC50 of test peptide)

GVVFGILIK (T0001 prints T at residue 673) [HER2/neu peptide, position 668, 9 amino acids]
relative binding ratio (IC50 of standard peptide / IC50 of test peptide) [12]: 0.089 relative binding ratio

GLGMEHLREV (Synthetic peptide) [HER2/neu A02 supermotif peptide, position 344, 10 amino acids]
relative binding ratio [5]: 0.0017 ratio (IC50 of standard peptide / IC50 of test peptide)

QALLHTANR (Synthetic A3 supermotif peptide) [HER2/neu peptide, position 491, 9 amino acids]
relative binding ratio [6]: 0.001 ratio (IC50 of standard peptide / IC50 of test peptide)
relative binding ratio [7]: 0.0046 ratio (IC50 of standard peptide / IC50 of test peptide)

NIQEFAGCKK (Synthetic A3 supermotif peptide) [HER2/neu peptide, position 360, 10 amino acids]
relative binding ratio [6]: 0.0056 ratio (IC50 of standard peptide / IC50 of test peptide)
relative binding ratio [7]: 0.0003 ratio (IC50 of standard peptide / IC50 of test peptide)

SSEDCQSLTR (Synthetic A3 supermotif peptide) [HER2/neu peptide, position 208, 10 amino acids]
relative binding ratio [6]: 0.002 ratio (IC50 of standard peptide / IC50 of test peptide)
relative binding ratio [7]: -0.0002 ratio (IC50 of standard peptide / IC50 of test peptide)

TLIDTNRSR (Synthetic A3 supermotif peptide) [HER2/neu peptide, position 182, 9 amino acids]
relative binding ratio [6]: 0.0005 ratio (IC50 of standard peptide / IC50 of test peptide)
relative binding ratio [7]: 0.0004 ratio (IC50 of standard peptide / IC50 of test peptide)

GMSYLEDVRL (Synthetic peptide) [HER2/neu A02 supermotif peptide, position 832, 10 amino acids]
relative binding ratio [5]: 0.0017 ratio (IC50 of standard peptide / IC50 of test peptide)

B4: Her2/neu.760.F1, 8-mer (peptide)
peptide: FPKANKEI
notes: 8-mer analog of the HER2/neu peptide starting at position 760; same label as the 9-mer in r54
IC50 [1]: 0.16 nM
IC50 [3]: 2500 nM
IC50 [4]: 3120 nM

GIWIPDGENV (Synthetic peptide) [HER2/neu A02 supermotif peptide, position 737, 10 amino acids]
relative binding ratio [5]: 0.0002 ratio (IC50 of standard peptide / IC50 of test peptide)

GILLVVVLGV (Synthetic peptide) [HER2/neu A02 supermotif peptide, position 660, 10 amino acids]
relative binding ratio [5]: 0.0007 ratio (IC50 of standard peptide / IC50 of test peptide)

B5: Her2/neu.649.I9 (peptide)
peptide: SPLTSIISI
notes: 9-mer analog of the HER2/neu peptide starting at position 649
IC50 [1]: 86 nM
IC50 [2]: 3440 nM
IC50 [3]: 275 nM
IC50 [4]: 217 nM

GSGAFGTVY [HER2/neu peptide, position 727, 9 amino acids]
relative binding ratio (IC50 of standard peptide / IC50 of test peptide) [12]: 0.0001 relative binding ratio

HVRENRGRL (Synthetic peptide) [HER2/neu A02 supermotif peptide, position 809, 9 amino acids]
relative binding ratio [5]: 0.0002 ratio (IC50 of standard peptide / IC50 of test peptide)

WPDSLPDI (analog peptide) [Her2/neu.415.I8]
IC50 [10]: 71 nM
IC50 [11]: 5000 nM

HVVPWDQLFK (synthetic analog peptide) [Her2/neu.478.V2K10]
IC50 [13]: 180 nM
IC50 [14]: 8.9 nM

B6: Her2/neu.698.F1I9 (peptide)
peptide: FPLTPSGAI
notes: 9-mer analog of the HER2/neu peptide starting at position 698
IC50 [1]: 0.9 nM
IC50 [3]: 9.2 nM
IC50 [4]: 1.9 nM

GASPGGLREL (Synthetic peptide) [HER2/neu A02 supermotif peptide, position 131, 10 amino acids]
relative binding ratio [5]: 0.0001 ratio (IC50 of standard peptide / IC50 of test peptide)

HVKITDFGL (Synthetic peptide) [HER2/neu A02 supermotif peptide, position 858, 9 amino acids]
relative binding ratio [5]: 0.0002 ratio (IC50 of standard peptide / IC50 of test peptide)

GAVENPEYL (Synthetic peptide) [HER2/neu A02 supermotif peptide, position 1189, 9 amino acids]
relative binding ratio [5]: 0.0002 ratio (IC50 of standard peptide / IC50 of test peptide)

ALTLIDTNR (also called Her2/neu.180 (9-mer)) [HER2/neu peptide, position 180, 9 amino acids]
relative binding ratio [8]: 0.0005 ratio (IC50 standard / IC50 test)
relative binding ratio [9]: 0.0004 ratio (IC50 standard / IC50 test)

GISWLGLRSL (Synthetic peptide) [HER2/neu A02 supermotif peptide, position 449, 10 amino acids]
relative binding ratio [5]: 0.0003 ratio (IC50 of standard peptide / IC50 of test peptide)

B7: Her2/neu.605 (peptide)
peptide: KPDLSYMPI
notes: native HER2/neu peptide from position 605
IC50 [10]: 76 nM
IC50 [11]: 2500 nM

GVGSPYVSRL (Synthetic peptide) [HER2/neu A02 supermotif peptide, position 776, 10 amino acids]
relative binding ratio [5]: 0.0001 ratio (IC50 of standard peptide / IC50 of test peptide)

RILKETELR (Synthetic A3 supermotif peptide) [HER2/neu peptide, position 713, 9 amino acids]
relative binding ratio [6]: 0.0038 ratio (IC50 of standard peptide / IC50 of test peptide)
relative binding ratio [7]: 0.0007 ratio (IC50 of standard peptide / IC50 of test peptide)

B8: Her2/neu.706.F1I10 (peptide)
peptide: FPNQAQMRII
notes: 10-mer analog of the HER2/neu peptide starting at position 706
IC50 [1]: 290 nM
IC50 [2]: 490 nM
IC50 [3]: 76 nM
IC50 [4]: 59 nM

GICELHCPAL (Synthetic peptide) [HER2/neu A02 supermotif peptide, position 262, 10 amino acids]
relative binding ratio [5]: 0.0005 ratio (IC50 of standard peptide / IC50 of test peptide)
